Legend:
HeLa Kyoto [1] = experiment: solubility in G1/S (NP-40 vs SDS abundance) (log2 ratio); higher = more soluble; conditions: cell cycle stage: G1/S
HeLa Kyoto [2] = experiment: melting temperature (median over replicates), in situ; higher = more thermally stable
HeLa Kyoto [3] = experiment: solubility change mitosis vs G1/S (difference of NP-40 vs SDS log2 ratios) (log2 ratio difference); higher = more soluble in mitosis
HeLa Kyoto [4] = experiment: thermal stability score vs G1/S (z-score of summed log2 fold changes over temperatures); higher = more thermally stable than in G1/S
[5] = cell cycle stage: early G1 (4.5 h after nocodazole release)
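For melting temperature (median over replicates), in situ in this document: HeLa Kyoto cells synchronized by double thymidine or nocodazole block, proteins quantified by TMT10plex mass spectrometry, three independent biological replicates.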
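For solubility change mitosis vs G1/S (difference of NP-40 vs SDS log2 ratios) in this document: synchronized HeLa Kyoto cells (double thymidine block for G1/S, nocodazole release for mitosis), protein amounts in NP-40 versus SDS lysates quantified by mass spectrometry, three biological replicates.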
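For solubility in G1/S (NP-40 vs SDS abundance) in this document: HeLa Kyoto cells arrested at G1/S by double thymidine block, proteins quantified by TMT10plex mass spectrometry in mild NP-40 versus SDS extracts, three biological replicates.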
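For thermal stability score vs G1/S (z-score of summed log2 fold changes over temperatures) in this document: synchronized HeLa Kyoto cells, proteins quantified by TMT10plex mass spectrometry, three biological replicates, mitosis taken 0.5 h after nocodazole release, G1/S directly after double thymidine block.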

With “MASGSVAECLQQETTCPVCLQYFAEPMMLDCGHNICCACLARCWGTAETNVSCPQCRETFPQRHMRPNRHLANVTQLVKQLRTERPSGPGGEMGVCEKHREPLKLYCEEDQMPICVVCDRSREHRGHSVLPLEEAVEGFKEQIQNQLDHLKRVKDLKKRRRAQGEQARAELLSLTQMEREKIVWEFEQLYHSLKEHEYRLLARLEELDLAIYNSINGAITQFSCNISHLSSLIAQLEEKQQQPTRELLQDIGDTLSRAERIRIPEPWITPPDLQEKIHIFAQKCLFLTESLKQFTEKMQSDMEKIQELREAQLYSVDVTLDPDTAYPSLILSDNLRQVRYSYLQQDLPDNPERFNLFPCVLGSPCFIAGRHYWEVEVGDKAKWTIGVCEDSVCRKGGVTSAPQNGFWAVSLWYGKEYWALTSPMTALPLRTPLQRVGIFLDYDAGEVSFYNVTERCHTFTFSHATFCGPVRPYFSLSYSGGKSAAPLIICPMSGIDGFSGHVGNHGHSMETSP [TRIM27]” the “solubility in G1/S (log2)” value (HeLa Kyoto [1]) was -0.499, the melting temperature (HeLa Kyoto [2]; cell cycle stage: G1/S) was 50.9 °C and the melting temperature (HeLa Kyoto [2]; cell cycle stage: mitosis) was 50.5 °C. The “solubility change mitosis (log2)” value (HeLa Kyoto [3]) was -0.135, the thermal stability score (HeLa Kyoto [4]; [5]) was 1.44 and the thermal stability score (HeLa Kyoto [4]; cell cycle stage: mitosis) was 3.24.
For “MADMQNLVERLERAVGRLEAVSHTSDMHRGYADSPSKAGAAPYVQAFDSLLAGPVAEYLKISKEIGGDVQKHAEMVHTGLKLERALLVTASQCQQPAENKLSDLLAPISEQIKEVITFREKNRGSKLFNHLSAVSESIQALGWVAMAPKPGPYVKEMNDAAMFYTNRVLKEYKDVDKKHVDWVKAYLSIWTELQAYIKEFHTTGLAWSKTGPVAKELSGLPSGPSAGSCPPPPPPCPPPPPVSTISCSYESASRSSLFAQINQGESITHALKHVSDDMKTHKNPALKAQSGPVRSGPKPFSAPKPQTSPSPKRATKKEPAVLELEGKKWRVENQENVSNLVIEDTELKQVAYIYKCVNTTLQIKGKINSITVDNCKKLGLVFDDVVGIVEIINSKDVKVQVMGKVPTISINKTDGCHAYLSKNSLDCEIVSAKSSEMNVLIPTEGGDFNEFPVPEQFKTLWNGQKLVTTVTEIAG [CAP1]”, the “solubility in G1/S (log2)” value (HeLa Kyoto [1]) was 0.178, the melting temperature (HeLa Kyoto [2]; cell cycle stage: G1/S) was 53.6 °C and the melting temperature (HeLa Kyoto [2]; cell cycle stage: mitosis) was 53.2 °C. For the same sequence, the “solubility change mitosis (log2)” value (HeLa Kyoto [3]) was 0.000121, the thermal stability score (HeLa Kyoto [4]; [5]) was -0.637 and the thermal stability score (HeLa Kyoto [4]; cell cycle stage: mitosis) was -0.459.
With “MEQWRQCGRWLIDCKVLPPNHRVVWPSAVVFDLAQALRDGVLLCQLLHNLSPGSIDLKDINFRPQMSQFLCLKNIRTFLKVCHDKFGLRNSELFDPFDLFDVRDFGKVISAVSRLSLHSIAQNKGIRPFPSEETTENDDDVYRSLEELADEHDLGEDIYDCVPCEDGGDDIYEDIIKVEVQQPMIRYMQKMGMTEDDKRNCCLLEIQETEAKYYRTLEDIEKNYMSPLRLVLSPADMAAVFINLEDLIKVHHSFLRAIDVSVMVGGSTLAKVFLDFKERLLIYGEYCSHMEHAQNTLNQLLASREDFRQKVEECTLKVQDGKFKLQDLLVVPMQRVLKYHLLLKELLSHSAERPERQQLKEALEAMQDLAMYINEVKRDKETLRKISEFQSSIENLQVKLEEFGRPKIDGELKVRSIVNHTKQDRYLFLFDKVVIVCKRKGYSYELKEIIELLFHKMTDDPMNNKDVKKSHGKMWSYGFYLIHLQGKQGFQFFCKTEDMKRKWMEQFEMAMSNIKPDKANANHHSFQMYTFDKTTNCKACKMFLRGTFYQGYMCTKCGVGAHKECLEVIPPCKFTSPADLDASGAGPGPKMVAMQNYHGNPAPPGKPVLTFQTGDVLELLRGDPESPWWEGRLVQTRKSGYFPSSSVKPCPVDGRPPISRPPSREIDYTAYPWFAGNMERQQTDNLLKSHASGTYLIRERPAEAERFAISIKFNDEVKHIKVVEKDNWIHITEAKKFDSLLELVEYYQCHSLKESFKQLDTTLKYPYKSRERSASRASSRSPASCASYNFSFLSPQGLSFASQGPSAPFWSVFTPRVIGTAVARYNFAARDMRELSLREGDVVRIYSRIGGDQGWWKGETNGRIGWFPSTYVEEEGIQ [VAV2]” the “solubility in G1/S (log2)” value (HeLa Kyoto [1]) was -0.0231, the melting temperature (HeLa Kyoto [2]; cell cycle stage: G1/S) was 48.7 °C and the melting temperature (HeLa Kyoto [2]; cell cycle stage: mitosis) was 48.9 °C. The “solubility change mitosis (log2)” value (HeLa Kyoto [3]) was -0.269, the thermal stability score (HeLa Kyoto [4]; [5]) was 0.0861 and the thermal stability score (HeLa Kyoto [4]; cell cycle stage: mitosis) was 1.36.
For “MAANMYRVGDYVYFENSSSNPYLIRRIEELNKTASGNVEAKVVCFYRRRDISNTLIMLADKHAKEIEEESETTVEADLTDKQKHQLKHRELFLSRQYESLPATHIRGKCSVALLNETESVLSYLDKEDTFFYSLVYDPSLKTLLADKGEIRVGPRYQADIPEMLLEGESDEREQSKLEVKVWDPNSPLTDRQIDQFLVVARAVGTFARALDCSSSVRQPSLHMSAAAASRDITLFHAMDTLYRHSYDLSSAISVLVPLGGPVLCRDEMEEWSASEASLFEEALEKYGKDFNDIRQDFLPWKSLTSIIEYYYMWKTTDRYVQQKRLKAAEAESKLKQVYIPTYSKPNPNQISTSNGKPGAVNGAVGTTFQPQNPLLGRACESCYATQSHQWYSWGPPNMQCRLCAICWLYWKKYGGLKMPTQSEEEKLSPSPTTEDPRVRSHVSRQAMQGMPVRNTGSPKSAVKTRQAFFLHTTYFTKFARQVCKNTLRLRQAARRPFVAINYAAIRAEYADRHAELSGSPLKSKSTRKPLACIIGYLEIHPAKKPNVIRSTPSLQTPTTKRMLTTPNHTSLSILGKRNYSHHNGLDELTCCVSD [MTA3]”, the “solubility in G1/S (log2)” value (HeLa Kyoto [1]) was -0.0389, the melting temperature (HeLa Kyoto [2]; cell cycle stage: G1/S) was 49.3 °C and the melting temperature (HeLa Kyoto [2]; cell cycle stage: mitosis) was 49.7 °C. The “solubility change mitosis (log2)” value (HeLa Kyoto [3]) was -0.00121, the thermal stability score (HeLa Kyoto [4]; [5]) was 0.944 and the thermal stability score (HeLa Kyoto [4]; cell cycle stage: mitosis) was 4.09.
In the case of “MDFSKFLADDFDVKEWINAAFRAGSKEAASGKADGHAATLVMKLQLFIQEVNHAVEETSHQALQNMPKVLRDVEALKQEASFLKEQMILVKEDIKKFEQDTSQSMQVLVEIDQVKSRMQLAAESLQEADKWSTLSADIEETFKTQDIAVISAKLTGMQNSLMMLVDTPDYSEKCVHLEALKNRLEALASPQIVAAFTSQAVDQSKVFVKVFTEIDRMPQLLAYYYKCHKVQLLAAWQELCQSDLSLDRQLTGLYDALLGAWHTQIQWATQVFQKPHEVVMVLLIQTLGALMPSLPSCLSNGVERAGPEQELTRLLEFYDATAHFAKGLEMALLPHLHEHNLVKVTELVDAVYDPYKPYQLKYGDMEESNLLIQMSAVPLEHGEVIDCVQELSHSVNKLFGLASAAVDRCVRFTNGLGTCGLLSALKSLFAKYVSDFTSTLQSIRKKCKLDHIPPNSLFQEDWTAFQNSIRIIATCGELLRHCGDFEQQLANRILSTAGKYLSDSCSPRSLAGFQESILTDKKNSAKNPWQEYNYLQKDNPAEYASLMEILYTLKEKGSSNHNLLAAPRAALTRLNQQAHQLAFDSVFLRIKQQLLLISKMDSWNTAGIGETLTDELPAFSLTPLEYISNIGQYIMSLPLNLEPFVTQEDSALELALHAGKLPFPPEQGDELPELDNMADNWLGSIARATMQTYCDAILQIPELSPHSAKQLATDIDYLINVMDALGLQPSRTLQHIVTLLKTRPEDYRQVSKGLPRRLATTVATMRSVNY [COG7]”, the “solubility in G1/S (log2)” value (HeLa Kyoto [1]) is reported as 0.165, the melting temperature (HeLa Kyoto [2]; cell cycle stage: G1/S) is reported as 48.8 °C and the melting temperature (HeLa Kyoto [2]; cell cycle stage: mitosis) is reported as 48.7 °C. For the same sequence, the “solubility change mitosis (log2)” value (HeLa Kyoto [3]) was -0.0565, the thermal stability score (HeLa Kyoto [4]; [5]) was 0.766 and the thermal stability score (HeLa Kyoto [4]; cell cycle stage: mitosis) was 1.31.

Reference: the supplement of paper PMC5998384
